*: point of attachment. NH(propargyl) = C#CCN*
Test: Circular dichroism measurement of peptide secondary structure
Format: physicochemical
Settings: aqueous environments; 208 nm and 222 nm signal; FIG. 1 and FIG. 2

Substance | α-helical structure content by circular dichroism
Acetyl-AADAADKEAAQKAIDAATNAVNAAIEAANAAGG-NHCH2CCH (Ac-AADAADKEAAQKAIDAATNAVNAAIEAANAAGG-{NH(propargyl)}; SMILES C#CCNC(=O)CNC(=O)CNC(=O)[C@H](C)NC(=O)[C@H](C)NC(=O)[C@H](CC(N)=O)NC(=O)[C@H](C)NC(=O)[C@H](C)NC(=O)[C@H](CCC(=O)O)NC(=O)[C@@H](NC(=O)[C@H](C)NC(=O)[C@H](C)NC(=O)[C@H](CC(N)=O)NC(=O)[C@@H](NC(=O)[C@H](C)NC(=O)[C@H](CC(N)=O)NC(=O)[C@@H](NC(=O)[C@H](C)NC(=O)[C@H](C)NC(=O)[C@H](CC(=O)O)NC(=O)[C@@H](NC(=O)[C@H](C)NC(=O)[C@H](CCCCN)NC(=O)[C@H](CCC(N)=O)NC(=O)[C@H](C)NC(=O)[C@H](C)NC(=O)[C@H](CCC(=O)O)NC(=O)[C@H](CCCCN)NC(=O)[C@H](CC(=O)O)NC(=O)[C@H](C)NC(=O)[C@H](C)NC(=O)[C@H](CC(=O)O)NC(=O)[C@H](C)NC(=O)[C@H](C)NC(C)=O)[C@@H](C)CC)[C@@H](C)O)C(C)C)[C@@H](C)CC) [HA54.1] | More significant improvement of the α-helical content
Acetyl-AADAADKEAAQKALDAATNALNAAIEAANAAGG-NHCH2CCH (Ac-AADAADKEAAQKALDAATNALNAAIEAANAAGG-{NH(propargyl)}; SMILES C#CCNC(=O)CNC(=O)CNC(=O)[C@H](C)NC(=O)[C@H](C)NC(=O)[C@H](CC(N)=O)NC(=O)[C@H](C)NC(=O)[C@H](C)NC(=O)[C@H](CCC(=O)O)NC(=O)[C@@H](NC(=O)[C@H](C)NC(=O)[C@H](C)NC(=O)[C@H](CC(N)=O)NC(=O)[C@H](CC(C)C)NC(=O)[C@H](C)NC(=O)[C@H](CC(N)=O)NC(=O)[C@@H](NC(=O)[C@H](C)NC(=O)[C@H](C)NC(=O)[C@H](CC(=O)O)NC(=O)[C@H](CC(C)C)NC(=O)[C@H](C)NC(=O)[C@H](CCCCN)NC(=O)[C@H](CCC(N)=O)NC(=O)[C@H](C)NC(=O)[C@H](C)NC(=O)[C@H](CCC(=O)O)NC(=O)[C@H](CCCCN)NC(=O)[C@H](CC(=O)O)NC(=O)[C@H](C)NC(=O)[C@H](C)NC(=O)[C@H](CC(=O)O)NC(=O)[C@H](C)NC(=O)[C@H](C)NC(C)=O)[C@@H](C)O)[C@@H](C)CC) [SEQHAS] | More significant improvement of the α-helical content
Acetyl-AADAADKEAKQKAIDAATNAVNSAIEAANKAGG-NHCH2CCH (Ac-AADAADKEAKQKAIDAATNAVNSAIEAANKAGG-{NH(propargyl)}; SMILES C#CCNC(=O)CNC(=O)CNC(=O)[C@H](C)NC(=O)[C@H](CCCCN)NC(=O)[C@H](CC(N)=O)NC(=O)[C@H](C)NC(=O)[C@H](C)NC(=O)[C@H](CCC(=O)O)NC(=O)[C@@H](NC(=O)[C@H](C)NC(=O)[C@H](CO)NC(=O)[C@H](CC(N)=O)NC(=O)[C@@H](NC(=O)[C@H](C)NC(=O)[C@H](CC(N)=O)NC(=O)[C@@H](NC(=O)[C@H](C)NC(=O)[C@H](C)NC(=O)[C@H](CC(=O)O)NC(=O)[C@@H](NC(=O)[C@H](C)NC(=O)[C@H](CCCCN)NC(=O)[C@H](CCC(N)=O)NC(=O)[C@H](CCCCN)NC(=O)[C@H](C)NC(=O)[C@H](CCC(=O)O)NC(=O)[C@H](CCCCN)NC(=O)[C@H](CC(=O)O)NC(=O)[C@H](C)NC(=O)[C@H](C)NC(=O)[C@H](CC(=O)O)NC(=O)[C@H](C)NC(=O)[C@H](C)NC(C)=O)[C@@H](C)CC)[C@@H](C)O)C(C)C)[C@@H](C)CC) [HA54.4] | More significant improvement of the α-helical content
Acetyl-Ala-Ala-Asp-Lys-Ala-Ser-Thr-Gln-Ala-Ala-Ile-Asp-Gly-Ala-Thr-Asn-Ala-Val-Asn-Ser-Ala-Ile-Glu-Ala-Gly-Gly-NHCH2CCH (Ac-AADKASTQAAIDGATNAVNSAIEAGG-{NH(propargyl)}; SMILES C#CCNC(=O)CNC(=O)CNC(=O)[C@H](C)NC(=O)[C@H](CCC(=O)O)NC(=O)[C@@H](NC(=O)[C@H](C)NC(=O)[C@H](CO)NC(=O)[C@H](CC(N)=O)NC(=O)[C@@H](NC(=O)[C@H](C)NC(=O)[C@H](CC(N)=O)NC(=O)[C@@H](NC(=O)[C@H](C)NC(=O)CNC(=O)[C@H](CC(=O)O)NC(=O)[C@@H](NC(=O)[C@H](C)NC(=O)[C@H](C)NC(=O)[C@H](CCC(N)=O)NC(=O)[C@@H](NC(=O)[C@H](CO)NC(=O)[C@H](C)NC(=O)[C@H](CCCCN)NC(=O)[C@H](CC(=O)O)NC(=O)[C@H](C)NC(=O)[C@H](C)NC(C)=O)[C@@H](C)O)[C@@H](C)CC)[C@@H](C)O)C(C)C)[C@@H](C)CC) [A2] | less optimal for forming α-helical structures in aqueous environments

Source: US20120064110A1
